According to US20120219551A1:
Where “and” joins values, the source holds several entries; their conditions need not be identical. Identical values can stand only once.

Columns and labels:
[1] = biological target: FcγRIIIA on natural killer cells of human donor PBMC (human) (UniProt P08637); assay: cell-based or functional assay
[2] = biological target: soluble dimeric FcγRIIB-Fc fusion protein (extracellular domain of FcγRIIB fused to hinge-CH2-CH3 of human IgG2) (human) (UniProt P31994); assay: SPR (BIAcore), Fc mutant in ch4-4-20, off rate relative to wild type
[3] = biological target: FcγRIIA (CD32A), H131 allotype (human) (UniProt P12318); assay: BIAcore
[4] = biological target: FcγRIIB (CD32B) (human) (UniProt P31994); assay: BIAcore
[5] = biological target: FcγRIIIA (CD16A), F158 allotype (human) (UniProt P08637); assay: BIAcore
[6] = biological target: FcγRIIIA (CD16A), V158 allotype (human) (UniProt P08637); assay: BIAcore
[7] = biological target: FcγRIIB (CD32B) (human) (UniProt P31994); assay: BIAcore (as Table 27)
[8] = biological target: FcγRIIIA (CD16A), F158 allotype (human) (UniProt P08637); assay: BIAcore (as Table 27)
[9] = biological target: FcγRIIIA (CD16A), V158 allotype (human) (UniProt P08637); assay: BIAcore (as Table 27)
[10] = biological target: FcγRIIA (CD32A), H131 allotype (human) (UniProt P12318); assay: not stated; human FcRs
[11] = biological target: FcγRIIB (CD32B) (human) (UniProt P31994); assay: not stated; human FcRs
[12] = biological target: FcγRIIIA (CD16A), V158 allotype (human) (UniProt P08637); assay: not stated; human FcRs
[13] = biological target: FcγRIIIA (CD16A), F158 allotype (human) (UniProt P08637); assay: not stated; human FcRs

Chain of FcγRIIIA (CD16A), F158 allotype (human) (P08637 17-208 limits assumed): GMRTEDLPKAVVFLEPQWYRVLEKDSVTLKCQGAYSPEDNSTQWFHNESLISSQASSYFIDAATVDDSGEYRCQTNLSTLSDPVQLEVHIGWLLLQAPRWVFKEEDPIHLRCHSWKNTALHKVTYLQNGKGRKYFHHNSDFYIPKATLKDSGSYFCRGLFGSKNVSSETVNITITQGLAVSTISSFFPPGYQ
Chain of FcγRIIA (CD32A), H131 allotype (human) (P12318 34-217 limits assumed): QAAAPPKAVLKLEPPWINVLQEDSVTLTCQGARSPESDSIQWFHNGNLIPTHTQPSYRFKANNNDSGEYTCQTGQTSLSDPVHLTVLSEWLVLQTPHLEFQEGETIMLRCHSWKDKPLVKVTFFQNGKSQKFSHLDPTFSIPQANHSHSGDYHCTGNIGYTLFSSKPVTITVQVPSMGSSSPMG
Chain of FcγRIIIA on natural killer cells of human donor PBMC (human) (P08637 17-254): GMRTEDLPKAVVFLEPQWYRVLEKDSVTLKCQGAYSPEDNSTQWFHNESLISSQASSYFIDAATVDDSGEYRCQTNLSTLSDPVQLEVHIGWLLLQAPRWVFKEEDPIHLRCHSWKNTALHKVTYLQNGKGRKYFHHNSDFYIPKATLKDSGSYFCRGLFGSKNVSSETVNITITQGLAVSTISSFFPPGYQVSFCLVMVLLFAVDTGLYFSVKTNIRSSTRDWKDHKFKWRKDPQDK
Chain of FcγRIIB (CD32B) (human) (P31994 43-217 limits assumed): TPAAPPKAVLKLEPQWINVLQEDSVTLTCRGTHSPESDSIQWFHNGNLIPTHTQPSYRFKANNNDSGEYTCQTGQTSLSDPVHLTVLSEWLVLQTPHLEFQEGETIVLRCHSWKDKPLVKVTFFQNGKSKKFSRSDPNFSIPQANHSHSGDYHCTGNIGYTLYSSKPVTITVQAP
Chain of soluble dimeric FcγRIIB-Fc fusion protein (extracellular domain of FcγRIIB fused to hinge-CH2-CH3 of human IgG2) (human) (P31994 43-217): as the sequence (P31994 43-217 limits assumed) above
Chain of FcγRIIIA (CD16A), V158 allotype (human) (P08637 17-208 F176V limits assumed): as the sequence (P08637 17-208 limits assumed) above, with F160V counted along it

Substance | Koff WT/Koff mutant [3] | Koff WT/Koff mutant [4] | Koff WT/Koff mutant [5] | Koff WT/Koff mutant [6] | Koff WT/Koff mutant [7] | Koff WT/Koff mutant [8] | Koff WT/Koff mutant [9] | further results
ch4-4-20 MgFc42 (D221E, D270E, V308A, Q311H, P396L, G402D) (antibody) | – | – | – | – | – | – | – | Relative rate of lysis (ADCC, vs wild type ch4-4-20) [1]: 3.17
ch4-4-20 MgFc44 (K334N, P396L) (antibody) | – | – | – | – | – | – | – | Relative rate of lysis (ADCC, vs wild type ch4-4-20) [1]: 2.43
ch4-4-20 MgFc46 (P217S, P396L) (antibody) | – | – | – | – | – | – | – | Relative rate of lysis (ADCC, vs wild type ch4-4-20) [1]: 2.04
ch4-4-20 MgFc47 (K210M, P396L) (antibody) | – | – | – | – | – | – | – | Relative rate of lysis (ADCC, vs wild type ch4-4-20) [1]: 2.02
ch4-4-20 MgFc48 (V379M, P396L) (antibody) | – | – | – | – | – | – | – | Relative rate of lysis (ADCC, vs wild type ch4-4-20) [1]: 2.01
ch4-4-20 MgFc50 (P247S, P396L) (antibody) | – | – | – | – | – | – | – | Relative rate of lysis (ADCC, vs wild type ch4-4-20) [1]: 2.1
ch4-4-20 MgFc51 (Q419H, P396L) (antibody) | – | – | – | – | – | – | – | Relative rate of lysis (ADCC, vs wild type ch4-4-20) [1]: 2.24
ch4-4-20 MgFc52 (V240A, P396L) (antibody) | – | – | – | – | – | – | – | Relative rate of lysis (ADCC, vs wild type ch4-4-20) [1]: 2.35
ch4-4-20 MgFc54 (F243L, V305I, A378D, F404S, P396L) (antibody) | – | – | – | – | – | – | – | Relative rate of lysis (ADCC, vs wild type ch4-4-20) [1]: 3.59
ch4-4-20 MgFc55 (R255L, P396L) (antibody) | – | – | – | – | – | – | – | Relative rate of lysis (ADCC, vs wild type ch4-4-20) [1]: 2.79
ch4-4-20 MgFc57 (L242F, P396L) (antibody) | – | – | – | – | – | – | – | Relative rate of lysis (ADCC, vs wild type ch4-4-20) [1]: 2.4
ch4-4-20 MgFc59 (K370E, P396L) (antibody) | – | – | – | – | – | – | – | Relative rate of lysis (ADCC, vs wild type ch4-4-20) [1]: 2.47
ch4-4-20 MgFc60 (P217S, P396L) (antibody) | – | – | – | – | – | – | – | Relative rate of lysis (ADCC, vs wild type ch4-4-20) [1]: 1.44
ch4-4-20 MgFc61 (A330V) (antibody) | – | – | – | – | – | – | – | Koff WT/Mut [2]: 0.61
ch4-4-20 MgFc62 (R292G) (antibody) | – | – | – | – | – | – | – | Koff WT/Mut [2]: 0.67
ch4-4-20 MgFc63 (S298N, K360R, N361D) (antibody) | – | – | – | – | – | – | – | Koff WT/Mut [2]: 0.67
ch4-4-20 MgFc64 (E233G) (antibody) | – | – | – | – | – | – | – | Koff WT/Mut [2]: 0.54
ch4-4-20 MgFc65 (N276Y) (antibody) | – | – | – | – | – | – | – | Koff WT/Mut [2]: 0.64
immunoglobulin with Fc variant D270E (antibody) | 2.24 | 0.39 | 1.48 | 1.25 | 0.39 | 1.48 | 1.25 | –
immunoglobulin with Fc variant D270E, K392T, P396L (antibody) | – | – | – | – | – | – | – | fold change vs wild-type affinity [10]: 0.9 fold; fold change vs wild-type affinity [11]: -0.3 fold; fold change vs wild-type affinity [12]: 0.8 fold
immunoglobulin with Fc variant D270E, P396L (antibody) | 2.44 | 0.89 | 1.65 | 1.38 | 0.89 | 1.65 | 1.38 | –
immunoglobulin with Fc variant D270E, P396L, Q419H (antibody) | 1.7 | 0.68 | – | 1.64 | 0.68 | – | 1.64 | –
immunoglobulin with Fc variant F243I, R292P, Y300L, V305I, P396L (antibody) | 1.49 | 1.05 | 3.12 | – | 1.05 | 3.12 | – | –

Substance | Koff WT/Koff mutant [3] | Koff WT/Koff mutant [4] | Koff WT/Koff mutant [5] | Koff WT/Koff mutant [6] | Koff WT/Koff mutant [7] | Koff WT/Koff mutant [8] | Koff WT/Koff mutant [9] | further results
immunoglobulin with Fc variant F243L, D270E, G316D, R416G (antibody) | 1.22 | 0.2 | 1.34 | 1.5 | 0.2 | 1.34 | 1.5 | –
immunoglobulin with Fc variant F243L, D270E, K392T, P396L (antibody) | 1.7 | 0.44 | 2.44 | 3.16 | 0.44 | 2.44 | 3.16 | –
immunoglobulin with Fc variant F243L, D270E, P396L, Q419H (antibody) | 1.11 | 0.26 | 1.15 | 1.46 | 0.26 | 1.15 | 1.46 | –
immunoglobulin with Fc variant F243L, P247L, D270E, N421K (antibody) | 0.98 | 0.32 | 3.45 | 2.3 | 0.32 | 3.45 | 2.3 | –
immunoglobulin with Fc variant F243L, P247L, N421K (antibody) | 0.39 | 0.17 | 1.71 | 1.89 | 0.17 | 1.71 | 1.89 | –
immunoglobulin with Fc variant F243L, P396L (antibody) | 1.5 | 2.22 | 1.6 | 1.49 | 2.22 | 1.6 | 1.49 | –
immunoglobulin with Fc variant F243L, R255L, D270E, P396L (antibody) | 1.44 | 0.38 | 1.64 | 1.75 | 0.38 | 1.64 | 1.75 | –
immunoglobulin with Fc variant F243L, R292P, P396L (antibody) | – | – | – | – | – | – | – | fold change vs wild-type affinity [10]: 0.4 fold; fold change vs wild-type affinity [11]: -1.6 fold; fold change vs wild-type affinity [13]: 2.4 fold; fold change vs wild-type affinity [12]: 5.3 fold
immunoglobulin with Fc variant F243L, R292P, V305I, P396L (antibody) | – | – | – | – | – | – | – | fold change vs wild-type affinity [10]: -0.3 fold; fold change vs wild-type affinity [11]: -1.6 fold; fold change vs wild-type affinity [12]: -3 fold
immunoglobulin with Fc variant K392T, P396L (antibody) | 1.22 | 2.35 | 1.81 | 1.49 | 2.35 | 1.81 | 1.49 | –
immunoglobulin with Fc variant P247L, D270E, N421K (antibody) | – | – | – | – | – | – | – | fold change vs wild-type affinity [10]: 1 fold; fold change vs wild-type affinity [11]: -0.7 fold; fold change vs wild-type affinity [12]: 0.9 fold
immunoglobulin with Fc variant P247L, D270E, Y300L, N421K (antibody) | 1.84 | 0.8 | 1.16 | 2.44 | – | – | – | –
immunoglobulin with Fc variant P396L, Q419H (antibody) | 0.63 | 1.33 | 1.19 | 1.19 | 1.33 | 1.19 | 1.19 | –
immunoglobulin with Fc variant R255L, D270E, P396L (antibody) | – | – | – | – | – | – | – | fold change vs wild-type affinity [11]: -0.1 fold; fold change vs wild-type affinity [13]: 0.7 fold; fold change vs wild-type affinity [12]: 0.3 fold
immunoglobulin with Fc variant R255L, D270E, R292G, P396L (antibody) | 1.05 | 0.65 | – | – | 0.65 | – | – | –
immunoglobulin with Fc variant R255L, D270E, Y300L, P396L (antibody) | 2.6 | 0.87 | 1.74 | 1.52 | 0.87 | 1.74 | 1.52 | –
immunoglobulin with Fc variant R255L, P396L (antibody) | 1.34 | 2.22 | 1.39 | 1.09 | 2.22 | 1.39 | 1.09 | –
immunoglobulin with Fc variant R292G (antibody) | 0.14 | 0.25 | – | 1.54 | 0.25 | – | 1.54 | –
immunoglobulin with Fc variant R292P (antibody) | – | – | – | – | – | – | – | fold change vs wild-type affinity [10]: -0.5 fold; fold change vs wild-type affinity [11]: -2.7 fold; fold change vs wild-type affinity [13]: 0.6 fold
immunoglobulin with Fc variant R292P, V305I (antibody) | 1.56 and 0.75 | – | 2.11 and 1.28 | 1.59 and 1.32 | – | 1.28 and 2.11 | 1.32 and 1.59 | –
immunoglobulin with Fc variant R292P, V305I, P396L (antibody) | 1.5 | 0.92 | 1.9 | 1.85 | 0.92 | 1.9 | 1.85 | –
immunoglobulin with Fc variant V284M, R292P, K370N (antibody) | 1.79 | 0.37 | 1.37 | 1.14 | 0.37 | 1.37 | 1.14 | –
